This note sets out measurements from US20120269801A1.

For test [1], the target named is CD59 in membrane extract of lysed CD59-expressing red blood cells (UniProt P13987). The experiment in a line: phage ELISA, membrane extract of CD59(+) red cells coated, anti-M13-HRP; helper phage control. (In an ELISA, binding on a coated surface is turned into a signal by an enzyme label.)
In test [2] the target is CD59 (target protein) (human) (UniProt P13987). The test can be described thus: phage ELISA, CD59 coated directly, anti-M13-HRP; helper phage control.

On to M13KO7 helper phage, for which the OD490 (Ag+ phage+, CD59(+)red cell) in test [1] turned out to be 0.046 OD. In test [2], this substance registered an OD490 (Ag+ phage+) of 0.046 OD.
